Results: article PMC10272835, “Exploration of T cell immune responses by expression of a dominant-negative SHP1 and SHP2” (Frontiers in Immunology, 2023)

B1: HVEM: inhibitory ligand of BTLA expressed on SupT1-GD2 cells (protein, UniProt Q92956 39-283, looked up)
Tumor necrosis factor …: LPSCKEDEYPVGSECCPKCSPGYRVKEACGELTGTVCEPCPPGTYIAHLNGLSKCLQCQMCDPAMGLRASRNCSRTENAVCGCSPGHFCIVQDGDHCAACRAYATSSPGQRVQKGGTESQDTLCQNCPPGTFSPNGTLEECQHQTKCSWLVTKAGAGTSSSHWVWWFLSGSLVIVIVCSTVGLIICVKRRKPRGDVVKVIVSVQRKRQEAEGEATVIEALQAPPDVTTVAVEETIPSFTGRSPNH
B2: CD155: inhibitory ligand of TIGIT expressed on SupT1-GD2 cells (protein, UniProt P15151 21-417, looked up)
Poliovirus receptor: WPPPGTGDVVVQAPTQVPGFLGDSVTLPCYLQVPNMEVTHVSQLTWARHGESGSMAVFHQTQGPSYSESKRLEFVAARLGAELRNASLRMFGLRVEDEGNYTCLFVTFPQGSRSVDIWLRVLAKPQNTAEVQKVQLTGEPVPMARCVSTGGRPPAQITWHSDLGGMPNTSQVPGFLSGTVTVTSLWILVPSSQVDGKNVTCKVEHESFEKPQLLTVNLTVYYPPEVSISGYDNNWYLGQNEATLTCDARSNPEPTGYNWSTTMGPLPPFAVAQGAQLLIRPVDKPINTTLICNVTNALGARQAELTVQVKEGPPSEHSGISRNAIIFLVLGILVFLILLGIGIYFYWSKCSREVLWHCHLCPSSTEHASASANGHVSYSAVSRENSSSQDPQTEGTR

Test system: SupT1-GD2 cells
Experiment: Effect of inhibitory ligand expression on GD2 CAR cytotoxicity
Assay type: cell-based
Details: ligand expressed on SupT1-GD2, E:T 1:4 and 1:8, 6 days
Experimental: Transduced T cells were depleted of CD56 cells using the EasySep Human CD56 positive selection kit (Stemcell Technologies; 17855) and rested for 24 hours. Transduced cells were co-cultured with target cells at the indicated effector: target (E:T) ratios with target cells remaining constant at the indicated number of target cells/co-culture. At the end of the co-culture period target cells were enumerated by flow cytometry and cytotoxicity calculated as a percentage of the number of target cells recovered from co-cultures with non-transduced (NT) T cells.
Figure 3 Interaction of dSHP2 with immunoinhibitory T cell receptors. (A-E) Binding of dSHP2 to phosphorylated peptides derived from the endodomains of immunoinhibitory T cell receptors. Plates were coated with phosphorylated or non-phosphorylated peptide at the indicated concentration and the purified, His-tagged SH2 domains of dSHP2 were allowed to bind overnight. Binding was measured through detection of the His tag. (F) Effect of inhibitory ligand expression on target cells on CAR T cytotoxicity. […] Supernatants were harvested from these co-cultures and levels of IFNγ measured by ELISA (I). […] Statistical significance was measured by two-way ANOVA. […]

Row | Molecule | effect of target cell ligand expression on CAR T cytotoxicity
1 | B1 | mild enhancement of CAR T cytotoxicity
2 | B2 | mild enhancement of CAR T cytotoxicity
